{"source": "patent US8993725B2", "about": "“Notch-based fusion proteins and uses thereof” (The Trustees of Columbia University in the City of New York, priority 2004, dated 2015)", "key": {"[1]": {"tested_on": "Ad-VEGF-infected HUVEC", "assay": "VEGF-induced budding (sprouting assay) of Ad-VEGF-HUVEC on collagen gel", "format": "cell-based, Human", "settings": "for Inhibition of VEGF-induced HUVEC budding: co-infection with Ad-VEGF; for Inhibition of VEGF-induced HUVEC budding / Effect of fusion protein adenovirus alone on HUVEC morphology / bud formation: collagen gel; for Effect of fusion protein adenovirus alone on HUVEC morphology / bud formation: without Ad-VEGF", "protocol": "For making collagen gels, an ice-cold solution of porcine type I collagen (Nitta gelatin, Tokyo, Japan) was mixed with 10×RPMI1640 medium and neutralization buffer at the ratio of 8:1:1. 400 μl aliquots of collagen gel were then added to 24-well plates and allowed to gel for at least 1 hour at 37° C. Following adenoviral infection (above), HUVEC was harvested and plated at 1.3×10^5 cells per well onto the top of the collagen gel in 24-well plates in 0.8 ml of EGM2 medium. HUVEC became nearly confluent 48 hours after plating. After seeding, medium was changed every 2 days for 1 week. Sprouting was observed and photographs taken after 8 days with an Olympus digital camera mounted to a microscope. For quantification of the number of sprouts, 5 fields per each well were randomly selected and sprouting was counted under microscopy in a blind manner by two investigators.\nHUVEC (Human Umbilical Vein Endothelial cells) growth are dependent on VEGF (FIGS. 26A and 26B) and differentiation-related biological responses, such as sprouting, and can be evaluated at an early stage (7). At first, we examined whether adenovirally transduced VEGF induced both Notch and Notch ligand expression in HUVEC cultured with complete medium containing bFGF (FIG. 22A), as reported (5). […] Transduced-VEGF also activated Notch signaling in a dose-dependent manner by measuring CSL-luciferase reporter activity (FIG. 22B), which was transactivated with Notch signaling (8). Notch signaling was activated at a higher dosage of Ad-VEGF, compared to proliferation (FIG. 26A). […] Since Notch mutants lacking both transmembrane and cytoplasmic domains functioned as dominant negative inhibitors against Notch signaling (9), we made a Notch-based fusion protein or decoy (N1ECDFc) to inhibit Notch signaling (FIG. 22D). […] Then, we examined whether N1ECDFc inhibited activation of Notch signaling by transduced VEGF in HUVEC (FIG. 22G). […] Gerhardt et al. reported that VEGF controlled angiogenesis in the early postnatal retina by guiding filopodia extension at the tips of the vascular sprouts (10). During angiogenic sprouting, the formation of a specialized endothelial cell making filopodia projections among quiescent endothelial cells, might be one of the early events. Here we mean formation of a single endothelial cell making filopodia protrusions as budding. Budding of the primary endothelial cells is induced by cultivating them 3-dimensionally on either fibrin or collagen gel (11). In the case where Ad-VEGF-HUVEC were cultured on collagen gel with complete medium, transduced-HUVEC made filopodia extensions into the collagen gel for 5 days (FIG. 22H) and the number of buds was increased in a dose-dependent manner (FIG. 27A). […] Since both VEGF and Notch signaling induce HUVEC budding, we examined whether N1ECDFc inhibited VEGF-induced HUVEC budding (FIG. 22H-I)."}, "[2]": {"tested_on": "VEGF-induced angiogenesis", "assay": "Mouse Dorsa Air Sac (DAS) assay of in vivo angiogenesis", "settings": "for VEGF-induced angiogenesis / neo-vascularization in vivo (summary statement): mouse", "text": "These Figures show the role of Notch signaling in VEGF-dependent in vivo angiogenesis. […] Representative photographs are shown. FIG. 25A show subcutaneous induced angiogenesis with 293/VEGF transfectant versus 293/VEGF also expressing Notch decoy (Notch-based fusion protein) N1ECDFc. […] MDA-MB-231 breast cancer cells produce VEGF (data not shown)."}}, "note": "Entries after “also recorded” stand apart in the source; their conditions may differ."}
{"molecule": "N1ECDFc: Notch-based fusion protein or decoy: extracellular domain of Notch1 containing the EGF-repeats fused to the Fc portion of an antibody (protein, left off: a dimerising Fc or GST, Notch-based fusion protein or decoy: extracellular domain of Notch1 containing the EGF-repeats fused to the Fc portion of an antibody) ARGLRCSQPSGTCLNGGRCEVANGTEACVCSGAFVGQRCQDPSPCLSTPCKNAGTCYVVDHGGIVDYACSCPLGFSGPLCLTPLANACLANPCRNGGTCDLLTLTEYKCRCPPGWSGKSCQQADPCASNPCANGGQCLPFESSYICGCPPGFHGPTCRQDVNECSQNPGLCRHGGTCHNEIGSYRCACRATHTGPHCELPYVPCSPSPCQNGGTCRPTGDTTHECACLPGFAGQNCEENVDDCPGNNCKNGGACVDGVNTYNCRCPPEWTGQYCTEDVDECQLMPNACQNAGTCHNSHGGYNCVCVNGWTGEDCSDNIDDCASAACFQGATCHDRVASFYCECPHGRTGLLCHLNDACISNPCNEGSNCDTNPVNGKAICTCPRGYTGPACSQDVDECALGANPCEHAGKCLNTLGSFECQCLQGYTGPRCEIDVNECISNPCQNDATCLDQIGEFQCICMPGYEGVYCEINTDECASSPCLHNGRCVDKINEFLCQCPKGFSGHLCQYDVDECASTPCKNGAKCLDGPNTYTCVCTEGYTGTHCEVDIDECDPDPCHIGLCKDGVATFTCLCQPGYTGHHCETNINECHSQPCRHGGTCQDRDNYYLCLCLKGTTGPNCEINLDDCASNPCDSGTCLDKIDGYECACEPGYTGSMCNVNIDECAGSPCHNGGTCEDGIAGFTCRCPEGYHDPTCLSEVNECNSNPCIHGACRDGLNGYKCDCAPGWSGTNCDINNNECESNPCVNGGTCKDMTSGYVCTCREGFSGPNCQTNINECASNPCLNQGTCIDDVAGYKCNCPLPYTGATCEVVLAPCATSPCKNSGVCKESEDYESFSCVCPTGWQGQTCEIDINECVKSPCRHGASCQNTNGSYRCLCQAGYTGRNCESDIDDCRPNPCHNGGSCTDGVNAAFCDCLPGFQGAFCEEDINECATNPCQNGANCTDCVDSYTCTCPTGFNGIHCENNTPDCTESSCFNGGTCVDGINSFTCLCPPGFTGSYCQYDVNECDSRPCLHGGTCQDSYGTYKCTCPQGYTGLNCQNLVRWCDSAPCKNGGKCWQTNTQYHCECRSGWTGFNCDVLSVSCEVAAQKRGIDVTLLCQHGGLCVDEEDKHYCHCQAGYTGSYCEDEVDECSPNPCQNGATCTDYLGGFSCKCVAGYHGSNCSEEINECLSQPCQNGGTCIDLTNTYKCSCPRGTQGVHCEINVDDCHPPLDPASRSPKCFNNGTCVDQVGGYTCTCPPGFVGERCEGDVNECLSNPCDPRGTQNCVQRVNDFHCECRAGHTGRRCESVINGCRGKPCRNGGVCAVASNTARGFICRCPARFEGATCENDARTCGSLRCLNGGTCISGPRSPTCLCLGSFTGPECQFPASSPCVGSNPCYNQGTCEPTSESPFYRCLCPAKFNGLLCHILDYSFTDLGPG", "values": [{"measurement": "Inhibition of VEGF-induced HUVEC budding", "setting": "[1]", "result": "clearly inhibited"}, {"measurement": "Inhibition of VEGF-induced HUVEC budding", "setting": "[1]; listed as Ad-N1ECDFc", "result": "clearly inhibited; also recorded: inhibition of budding"}, {"measurement": "Inhibition of VEGF-induced HUVEC budding", "setting": "[1]; listed as Notch fusion protein", "result": "clearly inhibited; also recorded: could inhibit VEGF-induced budding"}, {"measurement": "Cell number in VEGF-induced HUVEC budding assay", "setting": "[1]; co-transduction with Ad-VEGF", "result": "without affecting cell number"}, {"measurement": "Effect of fusion protein adenovirus alone on HUVEC morphology / bud formation", "setting": "[1]; listed as Ad-N1ECDFc", "result": "Neither Ad-LacZ or Ad-N1ECDFc-transduced HUVEC formed buds"}, {"measurement": "Effect of fusion protein adenovirus alone on HUVEC morphology / bud formation", "setting": "[1]; listed as Ad-Notch fusion protein", "result": "had less effect on morphology"}, {"measurement": "Effect of fusion protein adenovirus alone on HUVEC morphology / bud formation", "setting": "[1]; listed as Ad-Notch-based fusion protein", "result": "had less effect on morphology"}, {"measurement": "Vessel density, index of angiogenesis, MDA-MB-231", "setting": "[2]; Ad-N1ECDFc infected MDA-MB-231 cells", "result": "is inhibited"}, {"measurement": "Induction of VEGFR-1 expression in vivo", "setting": "[2]; VEGF-induced skin neovascularization model", "result": "blocks"}, {"measurement": "Inhibition of MDA-MB-231-induced in vivo angiogenesis", "setting": "[2]; adenovirus mediated expression, compared to adenovirus expressing LacZ", "result": "clearly inhibited"}, {"measurement": "Vessel density, index of angiogenesis, 293/VEGF", "setting": "[2]; co-expression of 293/N1ECDFc", "result": "is inhibited"}, {"measurement": "Inhibition of 293/VEGF-induced in vivo angiogenesis", "setting": "[2]; coexpression in 293/VEGF transfectant, compared to 293/VEGF alone", "result": "clearly inhibited"}, {"measurement": "VEGF-induced angiogenesis / neo-vascularization in vivo (summary statement)", "setting": "[2]", "result": "inhibition of VEGF-induced angiogenesis"}, {"measurement": "VEGF-induced angiogenesis / neo-vascularization in vivo (summary statement)", "setting": "[2]; listed as Notch-based fusion protein", "result": "blocks VEGF-induced neo-vascularization"}]}
